Test results taken from paper PMC8924211 (Nature Communications, 2022).
Residue numbers refer to the chain shown, from its start.

Legend:
Experiment in all cases: AlphaScreen or HTRF; saturation binding: HEK293 cells transfected with SNAP-tagged receptor (WT or mutant) and labelled with SNAP-Lumi4-Tb, incubated with increasing concentrations of galanin-A2 in the presence or absence of 100 uM unlabeled galanin, 1 h at room temperature; HTRF ratio 665 nm/620 nm
Details in all cases: one partner purified
[1] = target: T1, SNAP-GAL1R H112^3.29A (human, UniProt P47211 1-349, H112^3.29A, Lumi4-Tb on the SNAP tag)
T1 construct: also called H112A; source: HEK293, transfected, on cells; not shown: SNAP tag, N-terminal, kept
T1 sequence (looked up): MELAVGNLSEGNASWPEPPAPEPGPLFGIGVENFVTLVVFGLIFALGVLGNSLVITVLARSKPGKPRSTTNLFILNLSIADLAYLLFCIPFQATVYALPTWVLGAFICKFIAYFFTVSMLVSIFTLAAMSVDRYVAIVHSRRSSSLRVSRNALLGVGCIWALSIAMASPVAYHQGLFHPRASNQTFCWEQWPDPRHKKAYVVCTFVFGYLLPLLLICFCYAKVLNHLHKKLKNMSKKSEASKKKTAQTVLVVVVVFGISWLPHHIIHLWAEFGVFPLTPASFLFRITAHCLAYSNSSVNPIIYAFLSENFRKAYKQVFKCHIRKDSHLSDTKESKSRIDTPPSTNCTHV

[2] = target: T2, SNAP-GAL1R Q174^4.64A (human, UniProt P47211 1-349, Q174^4.64A, Lumi4-Tb on the SNAP tag)
T2 construct: also called Q174A; source: HEK293, transfected, on cells; not shown: SNAP tag, N-terminal, kept
T2 sequence (looked up): T1 sequence (looked up) with A112H, Q174A

[3] = target: T3, SNAP-GAL1R F177^ECL2A (human, UniProt P47211 1-349, F177^ECL2A, Lumi4-Tb on the SNAP tag)
T3 construct: also called F177A; source: HEK293, transfected, on cells; not shown: SNAP tag, N-terminal, kept
T3 sequence (looked up): T1 sequence (looked up) with A112H, F177A

[4] = target: T4, SNAP-GAL1R K197^5.35A (human, UniProt P47211 1-349, K197^5.35A, Lumi4-Tb on the SNAP tag)
T4 construct: also called K197A; source: HEK293, transfected, on cells; not shown: SNAP tag, N-terminal, kept
T4 sequence (looked up): T1 sequence (looked up) with A112H, K197A

[5] = target: T5, N-terminal-SNAP-tagged GAL1R, wild type (human, UniProt P47211 1-349, Lumi4-Tb on the SNAP tag)
T5 construct: also called SNAP-GAL1R; GAL1R WT; source: HEK293, transfected, on cells; not shown: SNAP tag, N-terminal, kept
T5 sequence (looked up): T1 sequence (looked up) with A112H

B1: galanin-A2 (full-length galanin labeled with the dye A2 on an additional cysteine at the C-terminal end) (peptide)
peptide: GWTLNSAGYLLGPHAVGNHRSFSDKNGLTSC
modifications: dye A2 on the additional C-terminal cysteine
notes: numbers count on: the mature protein; additional cysteine at the C-terminal end of the peptide, carries the dye A2; source: synthetic peptide (synthesized by Vazyme, China)
Work on B1 yielded a Kd [1] of 59.8 nM, a Kd [2] of 351 nM and a Kd [3] of 305 nM. For the same binder, the Kd [4] was 159 nM and the Kd [5] was 22.2 nM.
